Laboratory results reported in patent US20240218041A1, “MOLECULAR DESIGN OF GLUCOSE SENSORS IN GLUCOSE-RESPONSIVE INSULIN ANALOGUES” (THE TRUSTEES OF INDIANA UNIVERSITY, priority 2021, published 2024).
Values belong to the substance of their own block, whether it stands above or below them.

Tests used:
insulin receptor = insulin receptor (Homo sapiens, UniProt P06213); assay: In-cell pIR immunoblotting (pIR/IR phosphorylation, 96-well plate assay) in HepG2 cells; type: cell-based; design: endogenous in cells; host or cells: HepG2 (human hepatocellular carcinoma; ATCC); settings: for glucose-dependent activity in HepG2 cells in culture: as described in Chen, Y.-S., et al. (2021); for monosaccharide dependence of biological activity (pIR/IR phosphorylation): ±50 mM glucose or ±50 mM fructose
Description: After starvation, cells were treated in parallel with a set of insulin analogues in serum-free medium.
In-cell pIR immunoblotting. This cell-based assay probed insulin-dependent IR activation via fluorescent readouts. HepG2 cells were seeded (˜8000 cells/well) into a 96-well black plate with clear bottom and cultured (Fisher). After serum starvation in 100 μl plain Hanks' Balanced Salt Solution (HBSS) for 2 h at 37° C., serial analogue dilutions (100 μl) were applied to each well; cells were then incubated for 20 min at 37° C. After removing medium, 150 μl of 3.7% formaldehyde (Fisher) was added to each well, and plates incubated for 20 min at 37° C. 200 μl of 0.1% Triton-X-100 (Sigma) was then added to permeabilize the cells, followed by their fixation by 100-μl Odyssey Blocking Buffer (LI-COR). A blocking procedure was applied for 1 h at room temperature on an orbital shaker. Fixed cells were then exposed to the primary antibody (10 μL anti-pTyr 4G10 (Sigma) into 20 ml Blocking Buffer) overnight at 4° C. The secondary antibody (anti-mouse-IgG-800-CW antibody (Sigma) in 25 ml Blocking Buffer) was added after a wash. pTyr was detected via 800 nm emission. DRAQ5 (Fisher) was also applied to enable measurement of cell number via 700 nm emission. The fluorescence signals were detected on a LI-COR Infrared Imaging system (Odyssey) under settings as follows: offset 4 mm with setting “Intensity-Auto.”

[1] = system: PEPCK, ChREBP and SREBP gene expression in HepG2 cells; assay: Real-time qPCR assays of metabolic gene regulation in HepG2 cells; type: cell-based, human
Description: Cell culture. Human hepatocellular carcinoma cell line HepG2 was cultured in Dulbecco's Modified Eagle Medium (DMEM), supplemented with 10% fetal bovine serum (FBS), 1% penicillin/streptomycin as recommended by the American Type Culture Collection. A protocol employing 24-h serum starvation wherein FBS was applied at 70-75% confluence. After starvation, cells were treated in parallel with a set of insulin analogues in serum-free medium.
Real-time qPCR assays. Following serum starvation, HepG2 cells were treated with medium containing an insulin analogue (50 nM) for 8 h. In studies related to possible glucose responsiveness and lipid metabolism, the cells were treated with analogues for 3 or 4 h in media containing either low or normal glucose concentrations. Readouts were provided by downregulation of PEPCK and G6P and upregulation of ChREBP and SREBP. mRNA (messenger ribonucleic acid) abundances were measured in triplicate by quantitative polymerase chain reaction (qPCR). Samples were prepared as described by the vendor (One-Step rt-PCR reagent kits; Bio-Rad).

[2] = system: IR autophosphorylation and downstream p-AKT/AKT, p-FOXO1/FOXO1, p-GSK-3/GSK-3; assay: Western blot signaling assays in HepG2 cells; type: cell-based, human
Description: Signal propagation was probed via a cytoplasmic kinase cascade and changes in metabolic gene expression in HepG2 cells. […] An overview of IR autophosphorylation (probed by anti-pTyr IR antibodies) and downstream phosphorylation of Ser-Thr protein kinase AKT (protein kinase B; ratio p-AKT/AKT), forkhead transcription factor 1 (p-FOXO1/FOXO1), and glycogen synthase kinase-3 (p-GSK-3/GSK-3) at a single hormone dose (50 nM) was provided by Western blot (WB).
Signaling assays in a mammalian cell line. HepG2 cell line (ATCC) were cultured in DMEM with 10% FBS, 1% penicillin/streptomycin per vendor's instruction. After 70-75% cell confluence, cells were serum-starved for 24 h and then exposed to medium containing an insulin analogue (each at a protein concentration of 50 nM). After lysis in RIPA buffer (containing protease- and phosphatase-inhibitor cocktails; Roche), the total protein concentrations in the lysate was determined by BCA assay (Thermo). […] Briefly, for p-IR/IR blotting, samples were probed by insulin receptor β (4B8) antibody (CST antibodies unless otherwise stated) or an equal mixture of anti-phospho-insulin receptor β (Tyr1150/1151); phospho-insulin receptor (Tyr1158) antibody (Thermo); phospho-insulin receptor (Tyr1334) antibody (Thermo); phospho-insulin receptor β (Tyr1345) monoclonal antiserum; and anti-phospho-insulin receptor (phospho-Tyr972) antibody (Abcam). […]

[3] = in vivo; cited from earlier work

Substance: FRI: insulin lispro with meta-fluoro-PBA on the α-amino group of GlyA1, 3,4-dihydroxybenzoic acid on LysB28, and HisA8
effect of glucose on IR autophosphorylation activity (insulin receptor; addition of 50 mM glucose): did not influence its activity
IR autophosphorylation activity relative to KP (insulin receptor; in 50 mM fructose): almost as active as KP
baseline IR autophosphorylation activity (insulin receptor; in the absence of fructose): low
IR autophosphorylation signal (insulin receptor; on addition of 50 mM fructose): robust signal
regulation of PEPCK gene expression ([1]; activated by fructose, hypoglycemic conditions, HepG2): regulated downstream expression
regulation of ChREBP and SREBP genes ([1]; activated by fructose, normoglycemic conditions, HepG2): regulated the genes
effect of glucose on metabolic gene regulation ([1]; addition of glucose instead of fructose): no effects
signaling activity ([2]; in the absence of fructose, 50 nM): low
fructose dependence of signaling (IR autophosphorylation, p-AKT/AKT, p-FOXO1/FOXO1, p-GSK-3/GSK-3) ([2]; single hormone dose 50 nM, HepG2 cells): fructose-dependent signaling

glucose-dependent activity in HepG2 cells in culture (insulin receptor): glucose-dependent activity
glucose dependence of pIR/IR phosphorylation (insulin receptor; ±50 mM glucose, HepG2 cells): glucose-dependent IR phosphorylation
Substance: GlyA0, D-Cys(GBE1-C)A1, SecA6, SecA11, Lys(DHBA)B28-lispro [GRI-3]
monosaccharide dependence of biological activity (pIR/IR phosphorylation) (insulin receptor; HepG2 cells): monosaccharide-dependent biological activity
glucose-dependent gene regulation ([1]; PEPCK, ChREBP and SREBP, HepG2 cells in culture): glucose-dependent gene regulation

glucose-dependent activity in HepG2 cells in culture (insulin receptor): glucose-dependent activity
Substance: GlyA−1, Cys(GBE1-C)A0, SecA6, SecA11, Lys(DHBA)B28-lispro [GRI-4]
monosaccharide dependence of biological activity (pIR/IR phosphorylation) (insulin receptor; HepG2 cells): monosaccharide-dependent biological activity

Substance: insulin detemir
per molecule activity relative to human insulin [3]: fourfold reduced
